Earlier results on one substance are cited in paper PMC11394293.

pKd: −log10 of the molar value.

The target of this series is s-Klotho KL1/KL2 (Homo sapiens) (UniProt Q9UEF7).
Chain of UniProt Q9UEF7 (Q9UEF7 34-981): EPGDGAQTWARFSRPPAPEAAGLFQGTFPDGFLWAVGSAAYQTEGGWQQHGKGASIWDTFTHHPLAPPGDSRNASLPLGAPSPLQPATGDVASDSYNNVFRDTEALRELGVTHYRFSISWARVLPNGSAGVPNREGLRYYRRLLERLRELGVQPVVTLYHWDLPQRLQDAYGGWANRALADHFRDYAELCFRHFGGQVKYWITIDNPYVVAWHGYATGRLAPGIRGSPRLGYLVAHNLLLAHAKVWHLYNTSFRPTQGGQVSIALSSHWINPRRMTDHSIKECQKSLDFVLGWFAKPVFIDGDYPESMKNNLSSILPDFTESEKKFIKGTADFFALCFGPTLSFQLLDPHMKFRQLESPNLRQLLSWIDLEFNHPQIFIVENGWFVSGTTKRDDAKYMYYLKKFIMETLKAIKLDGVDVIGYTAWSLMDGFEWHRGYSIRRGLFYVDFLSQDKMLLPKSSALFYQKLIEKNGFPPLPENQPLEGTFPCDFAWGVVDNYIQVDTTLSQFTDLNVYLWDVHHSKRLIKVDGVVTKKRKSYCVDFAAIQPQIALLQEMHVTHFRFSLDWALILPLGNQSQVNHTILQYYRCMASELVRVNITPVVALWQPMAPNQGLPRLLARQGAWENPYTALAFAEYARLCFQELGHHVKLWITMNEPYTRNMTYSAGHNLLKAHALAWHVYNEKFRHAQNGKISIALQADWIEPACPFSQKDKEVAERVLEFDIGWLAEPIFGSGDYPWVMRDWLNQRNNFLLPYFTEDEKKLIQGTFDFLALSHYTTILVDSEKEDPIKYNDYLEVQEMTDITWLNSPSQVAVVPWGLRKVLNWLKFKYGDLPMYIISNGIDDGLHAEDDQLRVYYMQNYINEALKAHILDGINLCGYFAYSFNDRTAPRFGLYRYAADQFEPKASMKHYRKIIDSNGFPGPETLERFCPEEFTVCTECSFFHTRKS

On to FGF23 (from UniProt Q9GZV9), for which the pKd is 7.85.
